The values below come from article PMC10244618.

First the molecules themselves.
B1: NF2 (merlin) isoform 7, human, full length (507 aa, lacks exons 2-3 = isoform-1 residues 39-121; exon-16 C-terminus), P35240-4 (parent)
chain: MAGAIASRMSFSSLKRKQPKTFTVRIVTMDAEMEFNCEVKKQILDEKIYCPPEASVLLASYAVQAKYGDYDPSVHKRGFLAQEELLPKRVINLYQMTPEMWEERITAWYAEHRGRARDEAEMEYLKIAQDLEMYGVNYFAIRNKKGTELLLGVDALGLHIYDPENRLTPKISFPWNEIRNISYSDKEFTIKPLDKKIDVFKFNSSKLRVNKLILQLCIGNHDLFMRRRKADSLEVQQMKAQAREEKARKQMERQRLAREKQMREEAERTRDELERRLLQMKEEATMANEALMRSEETADLLAEKAQITEEEAKLLAQKAAEAEQEMQRIKATAIRTEEEKRLMEQKVLEAEVLALKMAEESERRAKEADQLKQDLQEAREAERRAKQKLLEIATKPTYPPMNPIPAPLPPDIPSFNLIGDSLSFDFKDTDMKRLSMEIEKEKVEYMEKSKHLQEQLNELKTEIEALKLKERETALDILHNENSDRGGSSKHNTIKKPQAQGRRPICI

The test covers variants of B1. Put plainly: reverse yeast two-hybrid deep mutational scan (rY2H-seq): NF2 isoform 7 mutant library as bait mated with wild-type prey strains; selection on medium lacking adenine for non-interacting pairs; NextSeq paired-end sequencing; enrichment vs …. Conditions: yeast diploids after mating (RBait_S3 x RPrey_S3), 30 °C, selection for reporter genes on NB agar, HIGHER = WEAKER BINDING (the opposite of display enrichments): higher = stronger loss of interaction: reverse Y2H selects yeast in which bait and prey do NOT interact (growth without adenine), so a …, hits-only table, scale: rY2H score, numbering: uniprot, sequence starts at 1. On the technique in general: Reporter assays use an easily measured gene product as a stand-in for the process of interest.

[1] abbreviates: with EMILIN1 (elastin microfibril interfacer 1), Q9Y6C2, human ABL2 co-expressed as the kinase-dead K35M mutant ….
[2] abbreviates: with NF2 C-terminal domain (wild type; homomeric NF2-NF2 interaction), P35240, human ABL2 co-expressed as the kinase-dead K35M mutant …, partner unresolved.
[3] abbreviates: with EMILIN1 (elastin microfibril interfacer 1), Q9Y6C2, human tyrosine kinase ABL2 co-expressed as the active kinase ….
[4] abbreviates: with KDM1A (lysine-specific histone demethylase 1A; the table's label AOF2 is a gene synonym of KDM1A), O60341, human ABL2 co-expressed as the kinase-dead K35M mutant ….
Setting [5] is: with KDM1A (lysine-specific histone demethylase 1A; the table's label AOF2 is a gene synonym of KDM1A), O60341, human tyrosine kinase ABL2 co-expressed as the active kinase ….
Where [6] appears, read: with PIK3R3 (phosphatidylinositol 3-kinase regulatory subunit gamma), Q92569, human tyrosine kinase ABL2 co-expressed as the active kinase ….

Several values for one entry are separate records, joined by “and”; a condition that tells them apart may be missing. Equal values may be shown once.

As for I178K, the enrichment worked out at 6.13 under setting [1] and 2.57 under setting [2].
Regarding Y61L, the enrichment reads like this: under setting [1], 3.12; under setting [3], 5.18; under setting [4], 9.24; under setting [5], 7.08; under setting [2], 3.55; under setting [6], 4.61 and 3.92.
Take R263L: the enrichment under setting [1] came to 3.17.
As for R263K, the enrichment is, setting by setting: under setting [1], 2.14; under setting [4], 1.91.
Regarding L156P, the enrichment reads like this: under setting [1], 2.26; under setting [4], 3.08 and 3.61; under setting [5], 1.95; under setting [2], 3.25 and 1.98.
As for V56C, the enrichment under setting [1] came out at 2.08; the enrichment under setting [3] is 3.78 and 9.66; the enrichment under setting [4] is 7.69 and 9.8; the enrichment under setting [5] turned out to be 6.5; the enrichment under setting [2] amounted to 3.78; the enrichment under setting [6] is 11.6 and 11.3.
S55E: the enrichment was 6.87 under setting [1], 5.24 under setting [3], 5.38 under setting [4] and 7.48 under setting [5].
In the case of N180T, the enrichment under setting [1] stood at 1.38.
Consider G157A, for which the enrichment runs as follows: under setting [1], 6.42; under setting [5], 5.01; under setting [2], 2.36 and 4.41.
Regarding G157L, the enrichment was 1.8 and 2.26 under setting [1]; 7.41 and 6.52 under setting [3]; 2.15 and 1.62 under setting [4]; 10.1 and 8.48 under setting [5]; 1.76 under setting [2].
For the variant L256A, the enrichment under setting [1] was found to be 5.54 and the enrichment under setting [5] turned out to be 2.38.
As for G114A, the enrichment under setting [1] is 7.29, the enrichment under setting [2] was 2.02 and the enrichment under setting [6] turned out to be 3.53.
As for P52E, the enrichment under setting [1] amounted to 9.88.
Regarding T97I, the enrichment runs as follows: under setting [1], 1.62; under setting [5], 1.95.
Turning to N137L, the enrichment is, setting by setting: under setting [1], 2.2; under setting [3], 2.24; under setting [5], 1.53; under setting [6], 1.5.
Turning to Q261L, the enrichment under setting [1] stood at 4.37.
L149A: the enrichment is, setting by setting: under setting [1], 4.26; under setting [3], 2.53 and 5.08; under setting [2], 2.75 and 3.85; under setting [6], 17.7.
For the variant G219E, the enrichment under setting [1] stood at 1.55.
Consider K66A, for which the enrichment is, setting by setting: under setting [1], 2.97; under setting [3], 3.9; under setting [4], 3.6; under setting [6], 5.98.
For the variant K66E, the enrichment by setting is: under setting [1], 2.7; under setting [5], 3.77; under setting [6], 4.55.
Turning to G135E, the enrichment came out at 2.42 under setting [1] and 2.61 under setting [4].
Turning to R113C, the enrichment is, setting by setting: under setting [1], 3.78 and 3.75; under setting [3], 7.86 and 3.66; under setting [4], 4.82 and 6.06; under setting [5], 4.42 and 5.11; under setting [6], 7.41.
On to V74C, for which the enrichment turned out to be 2.3 under setting [1], 2.58 under setting [4] and 1.98 under setting [6].
On to V74L, for which, under setting [1], the enrichment stood at 3.98.
With G78A, under setting [1], the enrichment is 3.44.
In the case of M122E, the enrichment under setting [1] was 4.7.
On to E177L, for which the enrichment by setting is: under setting [1], 4.46; under setting [3], 2.3; under setting [2], 5.54.
Take A240S: the enrichment worked out at 2.4 under setting [1] and 1.71 under setting [5].
In the case of S60L, the enrichment reads like this: under setting [1], 2.18; under setting [4], 2.95.
Take P87S: the enrichment came to 1.62 under setting [1]; 1.61 under setting [3]; 2.56 under setting [4]; 3.13 under setting [5]; 2.86 under setting [6].
Turning to P163K, the enrichment is, setting by setting: under setting [1], 5.55; under setting [4], 7.04; under setting [5], 5.58.
For the variant P163L, the enrichment stood at 3.08 under setting [1]; 3.88 under setting [3]; 7.24 under setting [4]; 5.95 under setting [5]; 1.78 under setting [2]; 12.3 under setting [6].
M251A: the enrichment is, setting by setting: under setting [1], 3.87 and 2.36; under setting [3], 6.14; under setting [4], 4.5; under setting [5], 2.61; under setting [6], 4.21.
Take T147E: under setting [1], the enrichment turned out to be 4.29.
On to L158A, for which the enrichment by setting is: under setting [1], 2.28; under setting [3], 2.56; under setting [5], 11; under setting [2], 1.57.
As to L158E, the enrichment runs as follows: under setting [1], 4.99; under setting [3], 4.25 and 2.98.
On to L158K, for which the enrichment was 2.72 under setting [1]; 3.39 and 2.28 under setting [3].
For R208C, under setting [1], the enrichment stood at 2.09.
Consider L151S, for which the enrichment turned out to be 3.66 under setting [1], 7.87 under setting [4], 6.8 under setting [5] and 12.3 under setting [2].
With L151K, under setting [1], the enrichment is 3.05.
With L151R, the enrichment runs as follows: under setting [1], 3.32 and 4.31; under setting [3], 6.23 and 2.68; under setting [4], 3.69.
As for R115C, the enrichment under setting [1] amounted to 2.2; the enrichment under setting [4] is 3.51 and 3.33; the enrichment under setting [5] was determined as 3.91; the enrichment under setting [6] came out at 1.62.
In the case of R104E, the enrichment under setting [1] worked out at 3.93.
Same read-out and setting: under T28L stands 5.37.
For the variant Q82A, the enrichment is 4.41 under setting [1], 9.08 under setting [4], 4.66 under setting [5] and 2.07 under setting [2].
Take S172P: the enrichment was 1.73 under setting [1]; 1.94 under setting [4]; 2.04 and 2.73 under setting [6].
As to R25L, the enrichment under setting [1] is 3.54, the enrichment under setting [4] turned out to be 4.09 and the enrichment under setting [5] was determined as 7.07.
